Test results reported in article PMC10415144, “Structural insights into CodY activation and DNA recognition” (Nucleic Acids Research, 2021).
Residue numbers refer to the chain shown, from its start.

B1: Enterococcus faecalis CodY (EfCodY), full length (natural protein)
chain: GAMATLLEKTRQVNELLQKNNLFDVQAELPYNKMAMILGDILESNAYIISSSGDLLGYTEKLDVNNARIKNMFKEKKFPQGYTEAVDMLKVTEANIPIDSDLTAFPFESRELYPFGLTTIVPLYGAGKRLGTIILARVEKSFNEDDLVLAEYSATVVGMQILYHQSRTIEAEVRSATAVQMAINTLSYSELKAVHAIFEALDGEEGRLTASSIADEIGITRSVIVNALRKLESAGIIESRSLGMKGTYLKVLNQQFIKELEK
notes: also called CodY from Ef
B2: EfCodY quadruple mutant (Tyr186, Arg238, Leu240 and Tyr246 replaced with Ala) (natural protein)
chain: B1 chain with Y188A, R240A, L242A, Y248A
notes: also called EfCodY-mutant

What was measured:
[1] = target: the molecule itself; assay: mass photometry; Refeyn OneMP; 100 nM CodY, ligand-free, 20 mM Tris-HCl pH 8, 200 mM NaCl
[2] = target: the molecule itself; assay: mass photometry + SEC-MALS; data not shown; EfCodY quadruple mutant in solution

Protein | stoichiometry N [1] | stoichiometry N [2]
B1 | 2 | –
B2 | – | 2
